The values below come from PMC8413462, “Eukaryotic Box C/D methylation machinery has two non-symmetric protein assembly sites”.

Residue numbers refer to the chain shown, from its start.

Data set [1] deals with T1, L7Ae (Pyrococcus furiosus, UniProt Q8U160 1-123). The data set can be described thus: EMSA; similar to snR51-kl1; EMSA: annealed in 10 mM Tris-HCl, 100 mM NaCl, 1 mM EDTA, pH 7.5; 4 C, 10% native PAGE; 10 pmol Cy5-RNA (~2 uM) or 0.5 nmol unlabeled RNA. RNP: 20 mM Na phospha. In general terms: Mobility shift assays separate free from complexed probe on a gel.
The target in data set [2] is T2, Snu13 V93IR95V (Saccharomyces cerevisiae, UniProt P39990 1-126, V93I;R95V).
T2 sequence: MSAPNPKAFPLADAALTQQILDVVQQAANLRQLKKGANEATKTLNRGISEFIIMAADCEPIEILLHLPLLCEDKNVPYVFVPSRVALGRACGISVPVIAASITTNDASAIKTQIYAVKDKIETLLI
The data set can be described thus: EMSA; EMSA: annealed in 10 mM Tris-HCl, 100 mM NaCl, 1 mM EDTA, pH 7.5; 4 C, 10% native PAGE; 10 pmol Cy5-RNA (~2 uM) or 0.5 nmol unlabeled RNA. RNP: 20 mM Na phosphate, 500 mM NaCl, pH 6.6. To be noted: protein: recombinant, tags: N-terminal His6, TEV-cleaved, label: 5'-Cy5.

Data set [3] addresses T3, Snu13 R95VP96A (Saccharomyces cerevisiae, UniProt P39990 1-126, R95V;P96A).
T3 sequence: T2 sequence with I93V, P96A
Described as above. The settings on record: protein: recombinant, tags: N-terminal His6, TEV-cleaved, label: 5'-Cy5.

Data set [4] concerns the target T1, L7Ae. The data set can be described thus: EMSA; EMSA: annealed in 10 mM Tris-HCl, 100 mM NaCl, 1 mM EDTA, pH 7.5; 4 C, 10% native PAGE; 10 pmol Cy5-RNA (~2 uM) or 0.5 nmol unlabeled RNA. RNP: 20 mM Na phospha.
Data set [5] has as its target T2, Snu13 V93IR95V. Nature of the data set: EMSA; better than wild type; EMSA: annealed in 10 mM Tris-HCl, 100 mM NaCl, 1 mM EDTA, pH 7.5; 4 C, 10% native PAGE; 10 pmol Cy5-RNA (~2 uM) or 0.5 nmol unlabeled RNA. RNP: 20 mM Na phosphate, 500 mM NaCl, pH 6.6. The settings on record: protein: recombinant; tags: N-terminal His6, TEV-cleaved; label: 5'-Cy5; k-turn.
The next data set has as its target T4, Snu13 R95VI98A (Saccharomyces cerevisiae, UniProt P39990 1-126, R95V;I98A).
T4 sequence: T2 sequence with I93V, I98A
The data set is described as above. To be noted: protein: recombinant; tags: N-terminal His6, TEV-cleaved; label: 5'-Cy5; k-turn.

Data set [6] addresses T3, Snu13 R95VP96A. The description is as above. To be noted: protein: recombinant; tags: N-terminal His6, TEV-cleaved; label: 5'-Cy5; k-turn.
Data set [7] deals with T1, L7Ae. The data set can be described thus: EMSA; affinity not improved over snR51-kl1; EMSA: annealed in 10 mM Tris-HCl, 100 mM NaCl, 1 mM EDTA, pH 7.5; 4 C, 10% native PAGE; 10 pmol Cy5-RNA (~2 uM) or 0.5 nmol unlabeled RNA. RNP: 20 mM Na phospha.
The target in a further data set is T5, Snu13 (Saccharomyces cerevisiae, UniProt P39990 1-126).
T5 sequence: T2 sequence with I93V, V95R
Nature of the data set: EMSA (ethidium bromide); ~100 uM RNA; EMSA: annealed in 10 mM Tris-HCl, 100 mM NaCl, 1 mM EDTA, pH 7.5; 4 C, 10% native PAGE; 10 pmol Cy5-RNA (~2 uM) or 0.5 nmol unlabeled RNA. RNP: 20 mM Na phosphate, 500 mM NaCl, pH 6.6. The settings on record: protein: recombinant; tags: N-terminal His6, TEV-cleaved; k-turn.

For the molecule UACGAAAUAGUUGAUGA (structured_RNA) [snR51-kl4], the binding result in the data set with L7Ae [1] was “binds”. Regarding ACUGACUGUGAUCAAACGAUCUUGUAGA (structured_RNA) [snR54-kl1], the binding result in the data set with Snu13 V93IR95V [2] (non-canonical k-turn) was “binds”; with Snu13 R95VP96A [3] (non-canonical k-turn), “binds”; with L7Ae [4], “no binding”. For ACUGACUGUGAUCAAACGAUCUUGAAGA (structured_RNA) [snR54-kl2], the binding result in the data set with Snu13 V93IR95V [2] and with Snu13 R95VP96A [3] was “binds” in each case. Take UACUAAAUAGUUGAUGA (structured_RNA) [snR51-kl3]: in the data set with Snu13 V93IR95V [2] (k-loop), the binding result is “binds”. Broadly, the Kd is the equilibrium constant for the complex coming apart. High values mean a looser complex, low ones a tighter complex. In the data set with L7Ae [4], UACUAGAUUGGUCUCUUUCAAGAAGGGGCUAAUUGAUGA (structured_RNA) [snR51-kl1] came in with a Kd of less than 0.141 µM.

With UACGAGAUUGGUCUCUUUCAAGAAGGGGCUAAUUGAUGA (structured_RNA) [snR51-kl2], the binding result in the data set with Snu13 V93IR95V [5], with Snu13 R95VI98A, with Snu13 R95VP96A [6] and with L7Ae [7] was “binds” throughout. Turning to UACGAGAUUGGUCUCUUUCAAGAAGGGGCUAAUUGAUGA (structured_RNA) [snR51-kl2 unlabeled], the binding result with Snu13 is on record as “binds”. On to ACUGAAAUAGUUGUAGA (structured_RNA) [snR54-kl3], for which, in the data set with Snu13 V93IR95V [2] (k-loop), the binding result is given as “binds”.
